In patent US20120315271A1 (Pfizer, published 2012):

Molecular target: T1, human nerve growth factor (human, UniProt P01138 122-241, limits assumed)
T1 construct: also called human NGF; hNGF
Assay: binding affinity measured with the Fab fragment; method not stated at this place (general BIAcore SPR protocol in paragraph 87); Fab, not IgG
Procedure: To obtain monofunctional Fab fragments, an antibody (for example, IgG) can be cleaved with papain or expressed recombinantly. […] The concentrations of the Fab proteins are determined by ELISA and/or SDS-PAGE electrophoresis using a Fab of known concentration (as determined by amino acid analysis) as a standard. […] Equilibrium dissociation constant (KD) values are calculated as koff/kₒₙ.

T1 sequence (P01138 122-241 limits assumed): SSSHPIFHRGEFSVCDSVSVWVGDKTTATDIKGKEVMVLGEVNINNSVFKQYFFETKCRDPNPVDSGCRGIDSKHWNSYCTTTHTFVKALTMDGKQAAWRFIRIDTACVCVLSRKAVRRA

B1: Fab fragment of humanized anti-NGF antibody E3 (Fab, V domains shown)
VH: QVQLQESGPGLVKPSETLSLTCTVSGFSLIGYDLNWIRQPPGKGLEWIGIIWGDGTTDYNSAVKSRVTISKDTSKNQFSLKLSSVTAADTAVYYCARGGYWYATSYYFDYWGQGTLVTVS
VL: DIQMTQSPSSLSASVGDRVTITCRASQSISNNLNWYQQKPGKAPKLLIYYTSRFHSGVPSRFSGSGSGTDFTFTISSLQPEDIATYYCQQEHTLPYTFGQGTKLEIK
notes: Full antibody E3 has a human IgG2a heavy chain constant region with A330P331 to S330S331 and a human kappa light chain constant region
With B1 the Kd was roughly 0.07 nM.
